According to publication PMC11952658, “The zinc finger of DNA Ligase 3α binds to nucleosomes via an arginine anchor” (Research Square, 2025):

Target: Cy3-labeled human histone nucleosome core particle reconstituted on the Widom 601 sequence (human, Cy3-maleimide on K119C)
Assay: single-molecule fluorescence imaging on a tethered nucleosome (SMADNE, LUMICKS C-trap); Cy3-labeled undamaged 601 NCP ligated into 6 kb biotinylated DNA handles and tethered between optically trapped streptavidin beads, 4–5 pN tension; tagged proteins from nuclear extract; lifetimes from CRTD; KD from koff, apparent kon and protein concentration
Conditions: one partner purified

B1: Halo 635-ZnF-BRCT LIG3α (domain or fragment)
chain: MAEQRFCVDYAKRGTAGCKKCKEKIVKGVCRIGKVVPNPFSESGGDMKEWYHIKCMFEKLERARATTKKIEDLTELEGWEELEDNEKEQITQHIADLSSKAAGTPKKKAVVQAKLTTTGQVTSPVKGASFVTSTNPRKFSGFSAKPNNSGEAPSSPTPKRSLSSSKCDPEKADFTVVAGDEGSSTTGGSSEENKGPSGSAVSRKAPSKPSASTKKAEGKLSNSNSKDGNMQTAKPSAMKVGEKLATKSSPVKVGEKRKAADETLCQTKVLLDIFTGVRLYLPPSTPDFSRLRRYFVAFDGDLVQEFDMTSATHVLGSRDKNPAAQQVSPEWIWACIRKRRLVAPC
modifications: Janelia Fluor 635 HaloTag ligand on the HaloTag
B1 gave a Kd of 1.1 ± 0.3 nM.
